B1: Motif 5 (t_MSE2 site S5, Probe 6) (dsDNA)
DNA 1: TTTTTATTACTTCAACTATTCAAATTT
DNA 2: AAATTTGAATAGTTGAAGTAATAAAAA
B2: Motif 4 (t_MSE2 site S4, Probe 5) (dsDNA)
DNA 1: ATGTATACTAATTAGACAGTCTCTTTTTTT
DNA 2: AAAAAAAGAGACTGTCTAATTAGTATACAT
B3: Motif 3 (t_MSE2 site S3, Probe 4) (dsDNA)
DNA 1: GAGAATTCAAGATCATAATATGTATACTAA
DNA 2: TTAGTATACATATTATGATCTTGAATTCTC

Biological target: GST-Abd-A DBD (Drosophila melanogaster, UniProt P29555-2 136-209)
Experiment: EMSA; 50 mM HEPES pH 7.9, 100 mM KCl, 1 mM DTT, 12.5 mM MgCl2, 0.05 mM EDTA, 17% glycerol, 400 ng/ul poly(dI-dC), 20 fmol probe, 0-3000 ng protein, 30 min on ice
Settings: protein: recombinant; tags: N-terminal GST (pGEX4T1); label: 3' biotin on each strand; blunt

GST-Abd-A DBD, sequence (P29555 396-469): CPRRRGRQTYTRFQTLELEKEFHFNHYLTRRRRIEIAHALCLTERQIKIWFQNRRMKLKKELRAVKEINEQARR

Binder | binding result
B1 | binds
B2 | binds
B3 | binds

— paper PMC4383587, “The Evolutionary Origination and Diversification of a Dimorphic Gene Regulatory Network through Parallel Innovations in cis and trans”
